What was measured:
anti-BCMA scFv P5A2 [1] = assay: Biacore (SPR); recombinant H6
[2] = target: anti-BCMA CAR clone P5A2 expressed on the cell surface; assay: flow cytometry, SSC against CAR (anti-id) staining, cell line Anti-BCMA CAR clone P5A2, hybridoma-derived H6 at '0.063G' as printed; Q4 prints 74.0
[3] = target: anti-BCMA CAR clone P5A2 expressed on the cell surface; assay: flow cytometry, SSC against CAR (anti-id) staining, cell line Anti-BCMA CAR clone P5A2, recombinant H6 at '0.063G' as printed; Q4 prints 72.4
anti-BCMA scFv P5A2 [4] = assay: Biacore (SPR); H6 purified from hybridoma
[5] = target: anti-BCMA CAR clone P5A2 expressed on the cell surface; assay: flow cytometry, anti-id staining on the PE-A axis against APC-A, Anti-BCMA CAR Clone P5A2 cells; Q2 prints 0.42, Q4 33.1, Q1 0.15

anti-BCMA CAR clone P5A2 expressed on the cell surface, sequence (chain, as listed by the source limits assumed): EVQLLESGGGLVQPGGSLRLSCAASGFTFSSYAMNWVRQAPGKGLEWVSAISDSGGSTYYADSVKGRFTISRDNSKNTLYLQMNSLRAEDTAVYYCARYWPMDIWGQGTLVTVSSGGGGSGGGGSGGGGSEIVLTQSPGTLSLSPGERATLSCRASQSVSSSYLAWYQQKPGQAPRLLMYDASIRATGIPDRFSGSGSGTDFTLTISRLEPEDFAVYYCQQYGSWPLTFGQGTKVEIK

Kd (anti-BCMA scFv P5A2 [1]): 3.71 nM
koff (anti-BCMA scFv P5A2 [1]): 0.00705 s⁻¹
kon (anti-BCMA scFv P5A2 [1]): 1.9e+06 M⁻¹ s⁻¹
t1/2 (anti-BCMA scFv P5A2 [1]): 1.64 min
percent of cells in CAR-positive gate Q3 [2]: 26%
percent of cells in CAR-positive gate Q3 [3]: 27.6%
Kd (anti-BCMA scFv P5A2 [4]): 3.73 nM
koff (anti-BCMA scFv P5A2 [4]): 0.00693 s⁻¹
kon (anti-BCMA scFv P5A2 [4]): 1.86e+06 M⁻¹ s⁻¹
t1/2 (anti-BCMA scFv P5A2 [4]): 1.67 min
percent of cells in anti-id-positive quadrant Q3 [5]: 66.3%
B1: anti-idiotypic antibody clone E2008.51H1.H6 (H6) (antibody, V domains shown)
VH: QVTLKESGPGILQPSQTLSLTCSFSGFSLNTSAMGVGWIRQPSGKGLEWLAHIWWNDDHYYNPALKSRVTISKDASNNQVFLKIASVVTADTATYYCARSIAPVVPTPFAYWGQGTLVTVSA
VL: DIQMTQSSSSFSVSLGDRVTITCKASEDIYNRLAWFQQKPGNAPRLLISGATRLETGVPSRFSGSGSGKDYTLSITSLQTEDVGTYYCQQYWSSSWTFGGGTKLEIK

Reference: patent US20240101710A1
